The values that follow come from publication PMC8465381, “Dopamine-Conjugated Carbon Dots Inhibit Human Calcitonin Fibrillation” (Nanomaterials, 2021).

Positions of bridges follow the written chain, without caps; N, C: chain ends. No end group written: not given here.

This data set deals with the molecule itself. Description: thioflavin-T fluorescence kinetics + TEM; 64 μM hCT alone, 50 mM phosphate buffer pH 7.4, 16 μM ThT, 1% DMSO, 25 °C, 384-well nonbinding plate with agitation every 2 h; end products negatively stained for TEM; fibril formation (self-assembly).

B1: Human calcitonin (peptide, UniProt P01258 85-116, looked up)
peptide: CGNLSTCMLGTYTQDFNKFHTFPQTAIGVGAP-NH2
modifications: disulfide 1-7
notes: human calcitonin, 32-residue hormone peptide cut from the calcitonin precursor; numbers count on: the mature protein; Forms amyloid fibrils; preformed fibrils of the same peptide were used as seeds; also called hCT; source: synthetic peptide (Fmoc solid-phase synthesis, RP-HPLC purified)
In the case of B1, the binding result is recorded as “binds”.
